Results taken from IntAct's records for PubMed 12718882.

B1: Splicing factor U2AF 65 kDa subunit (Homo sapiens), P26368 (parent)
chain: MSDFDEFERQLNENKQERDKENRHRKRSHSRSRSRDRKRRSRSRDRRNRDQRSASRDRRRRSKPLTRGAKEEHGGLIRSPRHEKKKKVRKYWDVPPPGFEHITPMQYKAMQAAGQIPATALLPTMTPDGLAVTPTPVPVVGSQMTRQARRLYVGNIPFGITEEAMMDFFNAQMRLGGLTQAPGNPVLAVQINQDKNFAFLEFRSVDETTQAMAFDGIIFQGQSLKIRRPHDYQPLPGMSENPSVYVPGVVSTVVPDSAHKLFIGGLPNYLNDDQVKELLTSFGPLKAFNLVKDSATGLSKGYAFCEYVDINVTDQAIAGLNGMQLGDKKLLVQRASVGAKNATLVSPPSTINQTPVTLQVPGLMSSQVQMGGHPTEVLCLMNMVLPEELLDDEEYEEIVEDVRDECSKYGLVKSIEIPRPVDGVEVPGCGKIFVEFTSVFDCQKAMQGLTGRKFANRVVVTKYCDPDSYHRRDFW
partner: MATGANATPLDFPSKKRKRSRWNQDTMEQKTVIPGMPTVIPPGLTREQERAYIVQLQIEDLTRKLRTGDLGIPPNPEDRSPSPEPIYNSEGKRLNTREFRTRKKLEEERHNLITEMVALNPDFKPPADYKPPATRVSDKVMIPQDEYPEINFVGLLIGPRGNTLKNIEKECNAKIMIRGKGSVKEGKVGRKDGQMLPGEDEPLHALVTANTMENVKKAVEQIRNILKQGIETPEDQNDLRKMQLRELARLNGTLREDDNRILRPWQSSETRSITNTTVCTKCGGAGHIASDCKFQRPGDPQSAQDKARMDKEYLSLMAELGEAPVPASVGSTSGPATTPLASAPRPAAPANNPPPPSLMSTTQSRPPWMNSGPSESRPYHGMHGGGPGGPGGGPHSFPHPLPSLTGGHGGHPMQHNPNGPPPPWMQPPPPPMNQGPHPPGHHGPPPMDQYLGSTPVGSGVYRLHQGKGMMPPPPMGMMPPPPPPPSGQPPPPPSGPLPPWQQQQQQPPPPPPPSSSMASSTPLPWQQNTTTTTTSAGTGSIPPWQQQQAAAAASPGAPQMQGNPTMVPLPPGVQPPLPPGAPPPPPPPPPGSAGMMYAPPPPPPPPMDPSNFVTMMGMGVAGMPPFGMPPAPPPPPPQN
B2: Splicing factor 1 (Homo sapiens), Q15637 (parent)
chain: B1 partner

Variants of: B1
Conditions: with sf01_human SF1, Q15637

effect of a mutation on the interaction | Variant
decreasing interaction | F454Y
decreasing interaction | F454A
disrupting interaction | D391R;D392R;E393K;E394K
with no effect | E387G;E388A
decreasing interaction | D391A;D392A;E393A;E394A
disrupting interaction | E396G;E397A
disrupting interaction | E396K;E397K
disrupting interaction | E387R;E388R
with no effect | E396A;E397A

Variants of: B2
Conditions: with U2AF2, P26368

effect of a mutation on the interaction | Variant
with no effect | R17E
disrupting interaction | K16E;R17D;K18E
decreasing interaction | K15E
with no effect | N23A
with no effect | K16A;R17A;K18A
with no effect | R21K
disrupting interaction | R21D
disrupting interaction | W22A
with no effect | W22F
disrupting interaction | K15E;K16E;R17D
with no effect | R19E
with no effect | Q24A
